Data: patent publication US20240034792A1 (HARBOUR BIOMED SHANGHAI, published 2024)
Read-outs that look alike come from different tables or passages of the source.

Experiments:
[1] = target: T1, Human PD-1 expressed on CHO-K1 cells (CHO-K1/hPD-1) (human, UniProt Q15116 25-288); assay: FACS, CHO-K1/hPD-1 cells
T1 construct: whole, on cells; also called CHO-K1 cells overexpressing human PD-1

[2] = target: T1, Human PD-1 expressed on CHO-K1 cells …; assay: FACS, CHO-K1/hPD-1 cells; remark: listed apart in the source
[3] = target: T2, Human PD-1 protein with histidine and avi tags (ACRO Biosystems, PD1-H82E4) (human, UniProt Q15116 25-167); assay: BLI (Octet Red96e), PD-1 captured on SA sensor, 1:1 local fit
T2 construct: Captured on streptavidin (SA) sensors in the BLI assay; not shown: histidine and avi tags
T2 sequence (Q15116 25-167 limits assumed): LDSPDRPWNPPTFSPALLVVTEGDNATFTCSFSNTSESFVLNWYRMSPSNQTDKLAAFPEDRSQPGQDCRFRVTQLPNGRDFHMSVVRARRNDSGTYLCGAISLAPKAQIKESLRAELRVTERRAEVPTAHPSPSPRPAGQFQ
Method: Human PD-1 proteins with histidine and avi tags were purchased from the manufacturer ACRO Biosystems (Cat#: PD1-H82E4), and the assay buffer was 1× kinetics buffer (diluted from 10× kinetics buffer (ForteBio, Cat#: 18-1105)) for kinetic assay and dilution of antigens and antibodies. The binding kinetics between the antigen and the antibody was analyzed by the biolayer interferometry (BLI) technique using an Octet molecular interaction analyzer (ForteBio, model: Octet Red96e).
When the binding kinetics between the antigen and the antibody was determined, the rotation speed of the sensor was set at 1000 rpm/min. The eight SA sensors placed in a column were first equilibrated in an assay buffer for 10 min and then used to capture PD-1 at a capture height of 0.5 nm. Thereafter, the SA sensors were equilibrated in the assay buffer for 100 s, and then were associated with each antibody diluted to a single concentration and with a row of blank buffer wells for 180 s, followed by dissociation for 600 s. A new column of SA sensors were used in each cycle.
When data analysis was performed using Octet Data Analysis software (Fortebio, version 11.0), the reference signals were subtracted by a single reference mode (reference well), the data were fitted by a “1:1 Local fitting” method, and the kinetic parameters of the binding of the antigen to the antibody were calculated to obtain kon (1/Ms) values, kdis (1/s) values and KD (M) values.

[4] = target: T1, Human PD-1 expressed on CHO-K1 cells …; assay: FACS, CHO-K1/hPD-1 cells; remark: listed apart in the source
Method: (§1) In order to investigate the in vitro binding activity of the PD-1 antigen-binding proteins to human/cynomolgus monkey PD-1, the binding assay at the cellular level was performed using a CHO-K1 cell strain overexpressing human or cynomolgus monkey PD-1 (CHO-K1/hPD-1 or CHO-K1/cyno PD-1, from GenScript). Briefly, the CHO-K1-hPD-1 cells were digested and resuspended in an F-12K complete medium, and the cell density was adjusted to 1×10⁶ cells/mL. The cells were seeded in a 96-well V-bottom plate (Corning, Cat#3894) at 100 μL/well, followed by the addition of the test antigen-binding proteins with concentrations 2-fold of final concentrations obtained by 5-fold gradient dilution were each added at 100 μL/well. The mixtures were well mixed. The maximum final concentration of the antigen-binding proteins was 100 nM or 300 nM. A total of 8-11 concentrations were set. hIgG was used as a control. The cells were incubated at 4° C. for 1 h away from light. Thereafter, the cells in each well were rinsed twice with 100 μL of pre-cooled PBS, and centrifuged at 500 g at 4° C. for 5 min, and then the supernatant was discarded. Then 100 μL of a fluorescent secondary antibody (goat anti-human IgG (H+L) secondary antibody, Alexa Fluor® 488 conjugate, Invitrogen, Cat #A11013, 1:1000) was added to each well. The plate was incubated away from light at 4° C. for 30 min. The cells in each well were rinsed twice with 200 μL of pre-cooled PBS, and centrifuged at 500 g at 4° C. for 5 min, and then the supernatant was discarded. Finally, the cells in each well were resuspended in 200 μL of pre-cooled PBS, and the fluorescence signal values were read using a BD FACS CANTOII.

[5] = target: T3, Cynomolgus monkey PD-1 expressed on CHO-K1 cells (CHO-K1/cyno PD-1) (cynomolgus monkey, UniProt B0LAJ3 25-288); assay: FACS, CHO-K1/cyno PD-1 cells
T3 construct: also called CHO-K1 cells overexpressing cynomolgus monkey PD-1
T3 sequence (B0LAJ3 entry or part of it limits assumed): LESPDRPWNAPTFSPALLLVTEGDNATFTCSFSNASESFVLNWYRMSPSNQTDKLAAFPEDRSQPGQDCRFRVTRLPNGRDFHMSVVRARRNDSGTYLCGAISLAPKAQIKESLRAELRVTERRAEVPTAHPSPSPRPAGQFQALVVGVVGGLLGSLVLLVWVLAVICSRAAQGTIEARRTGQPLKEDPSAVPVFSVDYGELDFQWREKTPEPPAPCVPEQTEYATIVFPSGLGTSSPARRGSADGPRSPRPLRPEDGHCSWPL
Method: as §1

[6] = target: T1, Human PD-1 expressed on CHO-K1 cells …; assay: FACS blocking of biotin-labeled human PD-L1 binding to CHO-K1-hPD-1 cells
Method: (§2) Briefly, the CHO-K1-hPD-1 cells were digested and resuspended in an F-12K complete medium, and the cell density was adjusted to 1×10⁶ cells/mL. The cells were seeded in a 96-well V-bottom plate (Corning, Cat#3894) at 100 μL/well, followed by the addition of the test antigen-binding proteins with concentrations 2-fold of final concentrations obtained by 3-fold or 5-fold gradient dilution were each added at 100 μL/well. The mixtures were well mixed. The maximum final concentration of the antigen-binding proteins was 100 nM or 300 nM. A total of 8 concentrations were set. hIgG was used as a control. The cells were incubated at 4° C. for 1 h away from light. […] The cells were incubated at 4° C. away from light for 30 min. The cells in each well were rinsed twice with 100 μL of pre-cooled PBS, and centrifuged at 500 g at 4° C. for 5 min, and then the supernatant was discarded. A fluorescent secondary antibody (PE Streptavidin, BD, Cat# 554061, 1:200) was added at 100 μL/well, and the cells were incubated at 4° C. away from light for 30 min. The cells in each well were rinsed twice with 200 μL of pre-cooled PBS, and centrifuged at 500 g at 4° C. for 5 min, and then the supernatant was discarded. Finally, the cells in each well were resuspended in 200 μL of pre-cooled PBS, the fluorescence signal values were read using a BD FACS CANTOII, and the IC₅₀ values were calculated.

[7] = target: T4, Human PD-1-His protein (ACROBiosystems, # PD1-H5221) (human, UniProt Q15116 25-167); assay: ELISA, plate-coated human PD-1-His
T4 construct: Bought reagent, coated on the ELISA plate; also called human PD-1 protein; human PD-1 antigen; not shown: His tag
T4 sequence (Q15116 25-167 limits assumed): as the sequence (Q15116 25-167 limits assumed) above
Method: Human PD-1-His protein (ACROBiosystems, # PD1-H5221) was diluted to 2 μg/mL with PBS, added to a 96-well plate (Corning, cat#9018) at 100 μL/well, and incubated at 4° C. overnight. After the liquid was discarded, the plate was washed 3 times with PBST buffer (pH 7.4, containing 0.05% Tween-20), and 250 μL of 2% BSA blocking buffer was added. The plate was incubated at 37° C. for 1 h. The blocking buffer was discarded, and the plate was washed 3 times with PBST buffer (pH 7.4, containing 0.05% Tween-20). The test antigen-binding protein was 5-fold diluted in sequence at an initial concentration of 100 nM for a total of 8-10 concentration gradients, and added at 100 μL/well. The plate was incubated at 37° C. for 1 h. An isotype antibody was taken as a control. After the plate was washed 3 times with PBST buffer (pH 7.4, containing 0.05% Tween-20), a 4000-fold diluted goat anti-human HRP secondary antibody (Invitrogen, #A18805) was added. The plate was incubated away from light at 37° C. for 1 h. After the plate was washed 3 times with PBST buffer (pH 7.4, containing 0.05% Tween-20), TMB (Biopanda, # TMB-S-003) was added at 100 μL/well. The plate was left away from light at room temperature for about 5 min. The reactions were terminated by adding 50 μL of stop buffer (BBI life sciences, #E661006-0200) to each well, and the absorbance values at 450 nm (OD450) were measured using a microplate reader (PerkinElemer, #Enspire). The half maximal effective concentration (EC₅₀) was calculated from the measurement results.

[8] = target: T1, Human PD-1 expressed on CHO-K1 cells …; assay: FACS blocking of biotin-labeled human PD-L2 binding to CHO-K1-hPD-1 cells
Method: as §2

T1 sequence (Q15116 25-288): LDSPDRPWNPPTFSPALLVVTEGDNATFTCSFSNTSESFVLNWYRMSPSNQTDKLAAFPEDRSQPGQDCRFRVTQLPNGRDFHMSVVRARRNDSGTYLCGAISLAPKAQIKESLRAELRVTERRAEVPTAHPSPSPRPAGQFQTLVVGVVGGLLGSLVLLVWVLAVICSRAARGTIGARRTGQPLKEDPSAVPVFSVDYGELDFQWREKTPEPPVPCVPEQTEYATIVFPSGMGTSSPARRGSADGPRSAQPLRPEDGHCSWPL

B1: PR005570 (antibody, human IgG1, V domains shown)
VH: EVQLVETGGGLIQPGGSLRLSCAASGFNVSFYYMSWVRQAPGKGREWVSIIDKGGSTYYGDSVKGRFTISRDNSKNRLYLQMNSLRAEDTAMYYCARATEVREKNGYNYPFNYWGQGTLVTVSS
notes: no light chain; also called anti-PD1 PR002481R2M1_H3 HCAb hIgG1
EC50 [1]: 6.54 nM | Maximum (MFI) [1]: 3.18e+06

B2: PR005584 (antibody, human IgG1, V domains shown)
VH: EVQLVETGGGLIQPGGSLRLSCAASGFNVSSFYMSWVRQAPGKGREWVSIIDKAGSTYYADSVKGRFTISRDNSKNRLYLQMNSLRAEDTAMYYCARATEVREKQGYNYPFNYWGQGTLVTVSS
notes: no light chain; also called anti-PD1 PR002481Com_30 HCAb hIgG1
EC50 [1]: 4.02 nM | Maximum (MFI) [1]: 3.02e+06

B3: PR005571 (antibody, human IgG1, V domains shown)
VH: EVQLVETGGGLIQPGGSLRLSCAASGFNVSFYYMSWVRQAPGKGREWVSIIDKGGSTYYADSVKGRFTISRDNSKNRLYLQMNSLRAEDTAMYYCARATEVREKQGYNYPFNYWGQGTLVTVSS
notes: no light chain; also called anti-PD1 PR002481Com_31 HCAb hIgG1
EC50 [1]: 6.55 nM | Maximum (MFI) [1]: 2.95e+06

B4: PR005581 (antibody, human IgG1, V domains shown)
VH: EVQLVETGGGLIQPGGSLRLSCAASGFNVSSFYMSWVRQAPGKGREWVSIIDKAGSTYYGASVKGRFTISRDNSKNRLYLQMNSLRAEDTAMYYCARATEVREKQGYNYPFNYWGQGTLVTVSS
notes: no light chain; also called anti-PD1 PR002481R2M1_A1 HCAb hIgG1
EC50 [1]: 7.31 nM | Maximum (MFI) [1]: 3.16e+06

B5: PR005573 (antibody, human IgG1, V domains shown)
VH: EVQLVETGGGLIQPGGSLRLSCAASGFNVSSHYMSWVRQAPGKGREWVSIIDKAGSGYYAASVKGRFTISRDNSKNRLYLQMNSLRAEDTAMYYCARATEVREKNGYNYPFNYWGQGTLVTVSS
notes: no light chain; also called anti-PD1 PR002481R2M3_D1 HCAb hIgG1
EC50 [1]: 4.73 nM | Maximum (MFI) [1]: 3.08e+06

B6: PR005585 (antibody, human IgG1, V domains shown)
VH: EVQLVETGGGLIQPGGSLRLSCAASGFTVSSFYMSWVRQAPGKGREWVSIIDKAGSTYYADSVKGRFTISRDNSKNRLYLQMNSLRAEDTAMYYCARATEVREKQGYNYPFNYWGQGTLVTVSS
notes: no light chain; also called anti-PD1 PR002481Com_35 HCAb hIgG1
EC50 [2]: 7.83 nM | Maximum (MFI) [2]: 3.11e+06 | Kd [3]: 3.08 nM | koff [3]: 2.22e-05 s⁻¹ | kon [3]: 13200 M⁻¹ s⁻¹

B7: PR005582 (antibody, human IgG1, V domains shown)
VH: EVQLVETGGGLIQPGGSLRLSCAASGFNVASFYMSWVRQAPGKGREWVSIIDKAGSTYYGASVKGRFTISRDNSKNRLYLQMNSLRAEDTAMYYCARATEVREKQGYNYPFNYWGQGTLVTVSS
notes: no light chain; also called anti-PD1 PR002481Com_28 HCAb hIgG1
EC50 [1]: 8.62 nM | Maximum (MFI) [1]: 3.3e+06

B8: PR005583 (antibody, human IgG1, V domains shown)
VH: EVQLVETGGGLIQPGGSLRLSCAASGFNVASFYMSWVRQAPGKGREWVSIIDKAGSTYYADSVKGRFTISRDNSKNRLYLQMNSLRAEDTAMYYCARATEVREKQGYNYPFNYWGQGTLVTVSS
notes: no light chain; also called anti-PD1 PR002481Com_29 HCAb hIgG1
EC50 [2]: 4.79 nM | Maximum (MFI) [2]: 2.76e+06 | Kd [3]: 1.69 nM | koff [3]: 1.65e-05 s⁻¹ | kon [3]: 8280 M⁻¹ s⁻¹

B9: PR005574 (antibody, human IgG1, V domains shown)
VH: EVQLVETGGGLIQPGGSLRLSCAASGFNVSSHYMSWVRQAPGKGREWVSIIDKAGSGYYADSVKGRFTISRDNSKNRLYLQMNSLRAEDTAMYYCARATEVREKQGYNYPFNYWGQGTLVTVSS
notes: no light chain; also called anti-PD1 PR002481R2M1_F1 HCAb hIgG1
EC50 [1]: 3.91 nM | Maximum (MFI) [1]: 2.82e+06

B10: PR000676 (antibody, human IgG4 S228P, kappa, V domains shown)
VH: QIQLVESGGGVVQPGRSLRLSCAASGFTLSSYGMHWVRQAPGKGLEWVAVILSDGSNKYYADSVKGRFTISRDNSKNTLYLQMNSLRAEDTAVYYCADLGGDVWGQGTTVTVSS
VL: EIVLTQSPATLSLSPGERATLSCRASQSVSSYLAWYQQKPGQAPRLLIYDASTRATGIPARFSGSGSGTDFTLTISSLEPEDFAVYYCQQRSNWPLTFGGGTKVEIKR
notes: Fully human recombinant H2L2 antibody, human IgG4, kappa light chain; also called 4004_1A7A1
EC50 [4]: 10.2 nM | MFI Maximum [4]: 2.16e+06 | EC50 [5]: 8.34 nM | MFI Maximum [5]: 39000 | IC50 [6]: 25.6 nM | Maximum inhibition rate (%) [6]: 76% | EC50 [7]: 0.121 nM | OD Maximum [7]: 3.32

B11: PR000679 (antibody, human IgG4 S228P, kappa, V domains shown)
VH: QVQLVQSGTEVKKPGSSVKVSCKASGGTFSSYAISWVRQAPGQGLEWMGGIIPIFDTVSSAQKFQGRVTITADKSTSTAYMELFSLRSEDTAVYYCARSPPYSSNWYQYFQHWGQGTLVTVSS
VL: DIQMTQSPSTLSASVGDRVTITCRASQTISIWLAWYQQKPGKAPKLLIYKASSLESGVPSRFSGSGSGTEFTLTISSLQPDDFATYYCQQFNSYWTFGQGTKVEIKR
notes: Fully human recombinant H2L2 antibody, human IgG4, kappa light chain; also called 4004_6C11C6
IC50 [8]: 3.38 nM | Maximum inhibition rate (%) [8]: 80.1% | EC50 [5]: 1.58 nM | MFI Maximum [5]: 24800 | IC50 [6]: 0.437 nM | Maximum inhibition rate (%) [6]: 40.2% | EC50 [7]: 0.102 nM | OD Maximum [7]: 3.31
